# Experimental data published in US10562936B2, “Ligands for integrin αvβ6, synthesis and uses thereof” (Technische Universitat Munchen, priority 2015, dated 2020).
# Square brackets hold non-standard residues; d marks the D form. Peptide text beside a SMILES is read from it. NMeK = CN[C@@H](CCCCN)C(=O)O; dNMeK = CN[C@H](CCCCN)C(=O)O; Sar = CNCC(=O)O
# Tests used:
# αvβ6 = αvβ6 (Homo sapiens, UniProt P06756+P18564); experiment: Solid-phase integrin binding assay, αvβ6 (coated LAP, soluble integrin); parameters: using coated extracellular matrix proteins and soluble integrins
# Experimental: (§1) The activity and selectivity of integrin ligands were determined by a solid-phase binding assay according to the previously reported protocols using coated extracellular matrix proteins and soluble integrins: Fibronectin (Fn) for α5β1, latent activating protein (LAP) for αvβ6 and αvβ8, Vitronectin (Vn) for αvβ3 and αvβ5, Fibrinogen (Fbg) for aIIbβ3.
# αvβ5 = target: T1, αvβ5 (Homo sapiens, UniProt P06756+P18084); experiment: Solid-phase integrin binding assay, αvβ5 (coated Vitronectin); conditions: solid-phase binding assay, Vitronectin coated; read-out: αvβ5, IC50
# T1 construct: using coated extracellular matrix proteins and soluble integrins
# Experimental: as §1
# αIIbβ3 = target: T2, αIIbβ3 (Homo sapiens, UniProt P05106+P08514); experiment: Solid-phase integrin binding assay, αIIbβ3 (coated Fibrinogen); conditions: solid-phase binding assay, Fibrinogen coated; read-out: αIIbβ3, IC50
# T2 construct: using coated extracellular matrix proteins and soluble integrins
# T2 sequence (P08514 32-1039): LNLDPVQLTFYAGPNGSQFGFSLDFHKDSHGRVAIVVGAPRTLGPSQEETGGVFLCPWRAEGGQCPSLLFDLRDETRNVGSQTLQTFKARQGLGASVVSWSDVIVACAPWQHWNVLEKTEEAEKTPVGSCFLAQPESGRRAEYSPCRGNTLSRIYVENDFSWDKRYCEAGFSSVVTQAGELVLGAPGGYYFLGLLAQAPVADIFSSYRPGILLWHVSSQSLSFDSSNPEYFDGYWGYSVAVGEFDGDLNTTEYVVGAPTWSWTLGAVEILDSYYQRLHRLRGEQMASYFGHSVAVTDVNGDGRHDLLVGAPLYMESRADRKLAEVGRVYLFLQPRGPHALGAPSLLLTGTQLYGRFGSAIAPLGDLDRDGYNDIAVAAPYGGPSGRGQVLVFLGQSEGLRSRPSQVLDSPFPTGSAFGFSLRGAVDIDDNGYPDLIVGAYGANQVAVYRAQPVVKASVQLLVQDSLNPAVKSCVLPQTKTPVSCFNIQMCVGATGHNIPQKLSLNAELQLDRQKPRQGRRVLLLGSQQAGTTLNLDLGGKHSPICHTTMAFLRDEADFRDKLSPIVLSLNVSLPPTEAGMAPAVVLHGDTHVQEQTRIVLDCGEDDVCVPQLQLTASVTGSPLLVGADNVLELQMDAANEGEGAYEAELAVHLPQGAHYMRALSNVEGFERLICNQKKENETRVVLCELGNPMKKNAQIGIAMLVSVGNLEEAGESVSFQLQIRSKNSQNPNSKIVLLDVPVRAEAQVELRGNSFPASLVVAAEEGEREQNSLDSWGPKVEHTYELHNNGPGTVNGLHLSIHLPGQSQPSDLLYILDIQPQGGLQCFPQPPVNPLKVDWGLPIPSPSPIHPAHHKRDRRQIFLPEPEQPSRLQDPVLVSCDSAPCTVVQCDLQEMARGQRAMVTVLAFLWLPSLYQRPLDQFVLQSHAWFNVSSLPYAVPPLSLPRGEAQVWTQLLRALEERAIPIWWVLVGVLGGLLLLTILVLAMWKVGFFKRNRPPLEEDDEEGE
# T2 sequence (P05106 27-788): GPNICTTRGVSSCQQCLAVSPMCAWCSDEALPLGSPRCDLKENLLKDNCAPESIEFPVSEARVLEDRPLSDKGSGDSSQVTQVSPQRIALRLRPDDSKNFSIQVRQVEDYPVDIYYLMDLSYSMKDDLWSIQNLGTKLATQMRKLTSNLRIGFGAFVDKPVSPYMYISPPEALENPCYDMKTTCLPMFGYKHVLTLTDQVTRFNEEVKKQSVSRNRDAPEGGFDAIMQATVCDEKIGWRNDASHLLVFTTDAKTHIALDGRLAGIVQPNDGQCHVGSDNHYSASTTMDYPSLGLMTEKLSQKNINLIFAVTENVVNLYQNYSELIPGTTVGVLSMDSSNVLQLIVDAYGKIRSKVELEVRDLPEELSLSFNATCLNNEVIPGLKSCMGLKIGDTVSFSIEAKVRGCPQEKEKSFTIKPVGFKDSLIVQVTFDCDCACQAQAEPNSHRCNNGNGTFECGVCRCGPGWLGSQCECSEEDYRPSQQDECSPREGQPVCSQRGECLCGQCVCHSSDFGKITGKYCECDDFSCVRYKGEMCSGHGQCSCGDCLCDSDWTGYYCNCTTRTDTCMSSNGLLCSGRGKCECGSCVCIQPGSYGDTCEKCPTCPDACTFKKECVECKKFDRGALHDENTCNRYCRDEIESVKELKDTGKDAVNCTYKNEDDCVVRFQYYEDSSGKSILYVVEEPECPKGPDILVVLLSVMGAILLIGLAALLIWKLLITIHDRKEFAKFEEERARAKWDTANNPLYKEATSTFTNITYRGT
# Experimental: as §1
# αvβ3 = target: T3, αvβ3 (Homo sapiens, UniProt P05106+P06756); experiment: Solid-phase integrin binding assay, αvβ3 (coated Vitronectin); conditions: solid-phase binding assay, Vitronectin coated; read-out: αvβ3, IC50
# T3 construct: using coated extracellular matrix proteins and soluble integrins
# T3 sequence (P06756 31-992 limits assumed): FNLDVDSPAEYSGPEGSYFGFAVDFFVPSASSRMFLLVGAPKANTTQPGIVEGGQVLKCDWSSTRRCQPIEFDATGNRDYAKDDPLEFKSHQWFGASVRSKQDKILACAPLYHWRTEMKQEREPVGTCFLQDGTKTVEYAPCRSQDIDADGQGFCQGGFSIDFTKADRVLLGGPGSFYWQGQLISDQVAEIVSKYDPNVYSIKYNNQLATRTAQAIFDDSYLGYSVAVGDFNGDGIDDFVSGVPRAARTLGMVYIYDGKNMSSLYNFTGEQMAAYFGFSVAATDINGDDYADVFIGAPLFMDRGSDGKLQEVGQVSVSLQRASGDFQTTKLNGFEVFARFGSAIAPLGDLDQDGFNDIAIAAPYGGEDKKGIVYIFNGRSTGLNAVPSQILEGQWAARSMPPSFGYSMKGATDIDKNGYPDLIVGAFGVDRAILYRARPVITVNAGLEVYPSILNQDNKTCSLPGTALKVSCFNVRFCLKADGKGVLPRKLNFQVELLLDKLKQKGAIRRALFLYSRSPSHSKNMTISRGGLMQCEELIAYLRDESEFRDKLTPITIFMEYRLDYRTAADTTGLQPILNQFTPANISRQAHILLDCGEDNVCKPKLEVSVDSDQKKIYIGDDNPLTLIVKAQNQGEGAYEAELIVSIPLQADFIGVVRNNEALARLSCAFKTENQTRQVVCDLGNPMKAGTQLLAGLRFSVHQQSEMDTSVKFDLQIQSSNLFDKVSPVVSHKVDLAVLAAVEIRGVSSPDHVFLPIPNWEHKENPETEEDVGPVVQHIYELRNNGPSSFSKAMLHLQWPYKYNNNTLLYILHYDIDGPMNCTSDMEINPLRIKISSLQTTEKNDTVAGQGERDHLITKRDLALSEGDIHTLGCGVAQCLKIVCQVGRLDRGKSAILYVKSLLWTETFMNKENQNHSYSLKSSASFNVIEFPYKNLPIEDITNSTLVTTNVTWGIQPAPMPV
# T3 sequence (P05106 27-718 limits assumed): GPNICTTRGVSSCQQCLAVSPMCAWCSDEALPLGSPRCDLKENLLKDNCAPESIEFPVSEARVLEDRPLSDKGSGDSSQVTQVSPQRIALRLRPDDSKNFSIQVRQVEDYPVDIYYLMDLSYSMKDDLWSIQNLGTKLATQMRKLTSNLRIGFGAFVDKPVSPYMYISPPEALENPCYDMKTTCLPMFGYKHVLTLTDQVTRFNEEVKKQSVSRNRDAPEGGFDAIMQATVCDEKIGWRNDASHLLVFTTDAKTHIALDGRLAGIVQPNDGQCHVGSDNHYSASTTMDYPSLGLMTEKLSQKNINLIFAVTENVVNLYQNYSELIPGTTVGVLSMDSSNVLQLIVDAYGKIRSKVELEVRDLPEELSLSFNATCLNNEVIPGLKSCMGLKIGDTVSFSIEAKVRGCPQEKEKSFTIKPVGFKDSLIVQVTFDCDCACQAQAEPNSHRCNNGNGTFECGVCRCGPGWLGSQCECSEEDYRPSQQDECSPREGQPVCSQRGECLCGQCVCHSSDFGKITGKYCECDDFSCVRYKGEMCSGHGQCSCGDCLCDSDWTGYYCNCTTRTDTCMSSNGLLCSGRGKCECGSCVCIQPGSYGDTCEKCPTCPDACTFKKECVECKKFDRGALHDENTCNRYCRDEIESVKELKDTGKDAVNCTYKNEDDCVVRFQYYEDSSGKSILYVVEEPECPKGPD
# Experimental: as §1
# [1] = target: T4, integrin αvβ6 (soluble integrin) (UniProt P06756 31-992; P18564 22-707); experiment: solid-phase binding assay, competition; coated LAP, soluble αvβ6
# T4 construct: Only 'soluble integrins' is said
# T4 sequence (P06756 31-992, chain 1 of 2): as the sequence (P06756 31-992 limits assumed) above
# T4 sequence (P18564 22-707, chain 2 of 2): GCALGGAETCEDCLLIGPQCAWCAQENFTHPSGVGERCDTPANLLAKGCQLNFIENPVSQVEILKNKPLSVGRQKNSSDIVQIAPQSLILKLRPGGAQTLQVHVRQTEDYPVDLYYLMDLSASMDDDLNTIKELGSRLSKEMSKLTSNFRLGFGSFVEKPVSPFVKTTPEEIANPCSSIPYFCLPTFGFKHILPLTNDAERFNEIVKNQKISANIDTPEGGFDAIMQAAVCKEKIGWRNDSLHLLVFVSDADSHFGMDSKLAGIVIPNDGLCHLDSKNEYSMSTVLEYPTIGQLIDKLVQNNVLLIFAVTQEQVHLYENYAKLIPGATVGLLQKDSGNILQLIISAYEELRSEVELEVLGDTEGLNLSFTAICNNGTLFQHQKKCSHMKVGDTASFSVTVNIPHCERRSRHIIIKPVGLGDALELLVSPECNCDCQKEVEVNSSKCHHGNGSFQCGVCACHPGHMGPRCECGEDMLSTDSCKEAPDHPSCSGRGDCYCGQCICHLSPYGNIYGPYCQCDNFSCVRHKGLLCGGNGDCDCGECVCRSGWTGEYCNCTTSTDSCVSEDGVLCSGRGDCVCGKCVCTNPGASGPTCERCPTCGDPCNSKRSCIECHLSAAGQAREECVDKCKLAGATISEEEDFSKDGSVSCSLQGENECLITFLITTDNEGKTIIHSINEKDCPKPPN
# [2] = target: T5, integrin αvβ3 (soluble integrin) (UniProt P06756 31-992; P05106 27-718); experiment: solid-phase binding assay, competition; coated vitronectin, soluble αvβ3
# T5 construct: Only 'soluble integrins' is said
# T5 sequence (P06756 31-992, chain 1 of 2): as the sequence (P06756 31-992 limits assumed) above
# T5 sequence (P05106 27-718, chain 2 of 2): as the sequence (P05106 27-718 limits assumed) above
# [3] = target: T6, integrin αvβ8 (soluble integrin) (UniProt P06756 31-992; P26012 43-684); experiment: solid-phase binding assay, competition; coated LAP, soluble αvβ8
# T6 construct: Only 'soluble integrins' is said
# T6 sequence (P06756 31-992, chain 1 of 2): as the sequence (P06756 31-992 limits assumed) above
# T6 sequence (P26012 43-684, chain 2 of 2): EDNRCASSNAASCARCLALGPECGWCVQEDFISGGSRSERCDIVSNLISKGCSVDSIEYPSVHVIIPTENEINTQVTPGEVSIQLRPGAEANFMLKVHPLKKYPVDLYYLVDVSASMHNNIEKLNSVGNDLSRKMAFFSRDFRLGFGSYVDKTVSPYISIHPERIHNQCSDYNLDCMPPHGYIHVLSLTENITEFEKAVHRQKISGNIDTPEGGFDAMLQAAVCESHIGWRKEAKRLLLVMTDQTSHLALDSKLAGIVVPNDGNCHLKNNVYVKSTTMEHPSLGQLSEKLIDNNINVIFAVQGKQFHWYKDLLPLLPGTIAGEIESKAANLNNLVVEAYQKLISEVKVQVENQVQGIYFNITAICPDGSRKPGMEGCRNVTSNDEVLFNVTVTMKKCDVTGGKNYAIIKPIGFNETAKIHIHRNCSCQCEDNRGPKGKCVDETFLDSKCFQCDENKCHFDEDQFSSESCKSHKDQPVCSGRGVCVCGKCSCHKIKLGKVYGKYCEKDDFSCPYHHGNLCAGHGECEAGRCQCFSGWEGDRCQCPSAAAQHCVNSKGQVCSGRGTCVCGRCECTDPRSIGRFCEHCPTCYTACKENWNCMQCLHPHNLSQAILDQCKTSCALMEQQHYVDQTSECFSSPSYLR
# [4] = target: T7, integrin α5β1 (soluble integrin) (UniProt P08648 42-995; P05556 21-728); experiment: solid-phase binding assay, competition; coated fibronectin, soluble α5β1
# T7 construct: Only 'soluble integrins' is said
Molecule,IC50 [1] [nM],IC50 [2] [nM],also measured
"CC(C)C[C@@H]1NC(=O)[C@H](CC(=O)O)NC(=O)CNC(=O)[C@H](CCCNC(=N)N)NC(=O)[C@H](C)NC(=O)[C@@H]2CCCN2C(=O)[C@H]2CCCN2C(=O)[C@H](CC(C)C)NC(=O)[C@H](C)NC1=O [Compound 4, A R G D L A L p P] (cyclo(ARGDLAL[dP]P))",,,IC50 (αvβ6): 3 nM; IC50 (αvβ5): > 1000 nM; IC50 (αIIbβ3): > 1000 nM; IC50 (αvβ3): 106 nM
"CC(C)C[C@@H]1NC(=O)[C@H](CC(=O)O)NC(=O)CNC(=O)[C@H](CCCNC(=N)N)NC(=O)[C@H](C)NC(=O)[C@@H]2CCCN2C(=O)[C@H]2CCCN2C(=O)[C@H](CC(C)C)NC(=O)[C@@H](CC(=O)O)NC1=O [Compound 7, A R G D L d L p P] (cyclo(ARGDL[dD]L[dP]P))",,,IC50 (αvβ3): > 1000 nM
"CC(C)C[C@@H]1NC(=O)[C@H](CC(=O)O)NC(=O)CNC(=O)[C@H](CCCNC(=N)N)NC(=O)[C@H](Cc2ccccc2)NC(=O)[C@@H]2CCCN2C(=O)[C@H]2CCCN2C(=O)[C@H](CC(C)C)NC(=O)[C@H](C)NC1=O [Compound 12, F R G D L A L p P] (cyclo(FRGDLAL[dP]P))",,,IC50 (αvβ6): 1.25 nM; IC50 (αvβ5): > 1000 nM; IC50 (αIIbβ3): > 1000 nM; IC50 (αvβ3): > 1000 nM
"CC(C)C[C@@H]1NC(=O)[C@H](CC(=O)O)NC(=O)CNC(=O)[C@H](CCCNC(=N)N)NC(=O)[C@H](C)NC(=O)[C@@H]2CCCN2C(=O)[C@H]2CCCN2C(=O)[C@H](Cc2ccccc2)NC(=O)[C@H](C)NC1=O [Compound 10, A R G D L A F p P] (cyclo(ARGDLAF[dP]P))",,,IC50 (αvβ6): 0.67 nM; IC50 (αvβ3): 104 nM
"cyclo(ARGDLAL[Sar]P) (SMILES CC(C)C[C@@H]1NC(=O)[C@H](CC(=O)O)NC(=O)CNC(=O)[C@H](CCCNC(=N)N)NC(=O)[C@H](C)NC(=O)[C@@H]2CCCN2C(=O)CN(C)C(=O)[C@H](CC(C)C)NC(=O)[C@H](C)NC1=O, Comparative compound (*)) [Compound 14, cyclic peptide A R G D L A L Sar P]",24.2,85.1,
"cyclo(ARGDLL[dP]P) (SMILES CC(C)C[C@@H]1NC(=O)[C@H](CC(=O)O)NC(=O)CNC(=O)[C@H](CCCNC(=N)N)NC(=O)[C@H](C)NC(=O)[C@@H]2CCCN2C(=O)[C@H]2CCCN2C(=O)[C@H](CC(C)C)NC1=O, Comparative compound (*)) [Compound 5, cyclic peptide A R G D L L p P]",292,,
"cyclo(ARGDL[dP]P) (SMILES CC(C)C[C@@H]1NC(=O)[C@H](CC(=O)O)NC(=O)CNC(=O)[C@H](CCCNC(=N)N)NC(=O)[C@H](C)NC(=O)[C@@H]2CCCN2C(=O)[C@H]2CCCN2C1=O, Comparative compound (*)) [Compound 6, cyclic peptide A R G D L p P]",417,,
"cyclo(ARGDL[dD]L[dP]P) (SMILES CC(C)C[C@@H]1NC(=O)[C@H](CC(=O)O)NC(=O)CNC(=O)[C@H](CCCNC(=N)N)NC(=O)[C@H](C)NC(=O)[C@@H]2CCCN2C(=O)[C@H]2CCCN2C(=O)[C@H](CC(C)C)NC(=O)[C@@H](CC(=O)O)NC1=O, Comparative compound (*)) [Compound 7, cyclic peptide A R G D L d L p P]",148,,
"cyclo(ARGDLAL[dNMeK]P) (Comparative compound (*)) [Compound 16, cyclic peptide A R G D L A L (NMe)k P]",11.4,50.4,
"cyclo(ARGDFAL[dP]P) (SMILES CC(C)C[C@@H]1NC(=O)[C@H](C)NC(=O)[C@H](Cc2ccccc2)NC(=O)[C@H](CC(=O)O)NC(=O)CNC(=O)[C@H](CCCNC(=N)N)NC(=O)[C@H](C)NC(=O)[C@@H]2CCCN2C(=O)[C@H]2CCCN2C1=O, Comparative compound (*)) [Compound 9, cyclic peptide A R G D F A L p P]",63.4,65.2,
"cyclo(FRGDLAL[dP]P) (SMILES CC(C)C[C@@H]1NC(=O)[C@H](CC(=O)O)NC(=O)CNC(=O)[C@H](CCCNC(=N)N)NC(=O)[C@H](Cc2ccccc2)NC(=O)[C@@H]2CCCN2C(=O)[C@H]2CCCN2C(=O)[C@H](CC(C)C)NC(=O)[C@H](C)NC1=O, also called Cpd; 12) [Compound 12, cyclic peptide F R G D L A L p P]",,,IC50 [3]: 127 nM; IC50 [4]: 254 nM
"cyclo(ARGDLAL[dP][Sar]) (SMILES CC(C)C[C@@H]1NC(=O)[C@H](CC(=O)O)NC(=O)CNC(=O)[C@H](CCCNC(=N)N)NC(=O)[C@H](C)NC(=O)CN(C)C(=O)[C@H]2CCCN2C(=O)[C@H](CC(C)C)NC(=O)[C@H](C)NC1=O) [Compound 13, cyclic peptide A R G D L A L p Sar]",8.1,87.7,
"cyclo(ARGDLAL[dP][NMeK]) (SMILES CC(C)C[C@@H]1NC(=O)[C@H](CC(=O)O)NC(=O)CNC(=O)[C@H](CCCNC(=N)N)NC(=O)[C@H](C)NC(=O)[C@H](CCCCN)N(C)C(=O)[C@H]2CCCN2C(=O)[C@H](CC(C)C)NC(=O)[C@H](C)NC1=O) [Compound 15, cyclic peptide A R G D L A L p (NMe)K]",4.3,415,
"cyclo(ARGDLAF[dP][NMeK]) (SMILES CC(C)C[C@@H]1NC(=O)[C@H](CC(=O)O)NC(=O)CNC(=O)[C@H](CCCNC(=N)N)NC(=O)[C@H](C)NC(=O)[C@H](CCCCN)N(C)C(=O)[C@H]2CCCN2C(=O)[C@H](Cc2ccccc2)NC(=O)[C@H](C)NC1=O) [Compound 17, cyclic peptide A R G D L A F p (NMe)K]",0.7,143,
"cyclo(WRGDLAF[dP][NMeK]) (SMILES CC(C)C[C@@H]1NC(=O)[C@H](CC(=O)O)NC(=O)CNC(=O)[C@H](CCCNC(=N)N)NC(=O)[C@H](Cc2c[nH]c3ccccc23)NC(=O)[C@H](CCCCN)N(C)C(=O)[C@H]2CCCN2C(=O)[C@H](Cc2ccccc2)NC(=O)[C@H](C)NC1=O) [Compound 22, cyclic peptide W R G D L A F p (NMe)K]",,645,
"cyclo(FRGDLAW[dP][NMeK]) (SMILES CC(C)C[C@@H]1NC(=O)[C@H](CC(=O)O)NC(=O)CNC(=O)[C@H](CCCNC(=N)N)NC(=O)[C@H](Cc2ccccc2)NC(=O)[C@H](CCCCN)N(C)C(=O)[C@H]2CCCN2C(=O)[C@H](Cc2c[nH]c3ccccc23)NC(=O)[C@H](C)NC1=O) [Compound 20, cyclic peptide F R G D L A W p (NMe)K]",0.12,204,
"YRGDLAFXX (head-to-tail cyclic; D-Pro (p) at position 8; N-methyl-Lys at position 9) [Compound 21, cyclic peptide Y R G D L A F p (NMe)K]",0.4,432,
"FRGDLAYXX (head-to-tail cyclic; D-Pro (p) at position 8; N-methyl-Lys at position 9) [Compound 19, cyclic peptide F R G D L A Y p (NMe)K]",0.39,685,
"cyclo(ARGDAAAL[dP]P) (SMILES CC(C)C[C@@H]1NC(=O)[C@H](C)NC(=O)[C@H](C)NC(=O)[C@H](C)NC(=O)[C@H](CC(=O)O)NC(=O)CNC(=O)[C@H](CCCNC(=N)N)NC(=O)[C@H](C)NC(=O)[C@@H]2CCCN2C(=O)[C@H]2CCCN2C1=O, Comparative compound (*)) [Compound 2, cyclic peptide A R G D A A A L p P]",320,,
"cyclo(ARGDLAAA[dP]P) (SMILES CC(C)C[C@@H]1NC(=O)[C@H](CC(=O)O)NC(=O)CNC(=O)[C@H](CCCNC(=N)N)NC(=O)[C@H](C)NC(=O)[C@@H]2CCCN2C(=O)[C@H]2CCCN2C(=O)[C@H](C)NC(=O)[C@H](C)NC(=O)[C@H](C)NC1=O, Comparative compound (*)) [Compound 3, cyclic peptide A R G D L A A A p P]",15.4,,
